Measurements published in publication doi:10.1101/2020.02.05.923433 (bioRxiv, 2020).

Molecular target: T1, purified RASSF1 RA domain (human, UniProt Q9NS23-2 124-288)
T1 sequence: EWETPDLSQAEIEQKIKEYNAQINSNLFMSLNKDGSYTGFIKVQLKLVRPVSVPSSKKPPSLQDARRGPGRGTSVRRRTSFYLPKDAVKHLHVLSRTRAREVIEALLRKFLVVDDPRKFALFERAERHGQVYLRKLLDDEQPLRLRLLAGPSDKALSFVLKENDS
Assay: ITC

B1: GEM-GDP (purified GEM used for ITC) (domain or fragment)
chain: STDSVISSESGNTYYRVVLIGEQGVGKSTLANIFAGVHDSMDSDCEVLGEDTYERTLMVDGESATIILLDMWENKGENEWLHDHCMQVGDAYLIVYSITDRASFEKASELRIQLRRARQTEDIPIILVGNKSDLVRCREVSV
Kd: 9.6 µM
